Two substances from article PMC9658050 can be followed below.

For assay [1], the target named is Full-length SARS-CoV-2 envelope (E) protein (SARS-CoV-2) (UniProt P0DTC4). In words: AUC.
In assay [2] the target is His-tagged truncated SARS-CoV-2 E protein (residues 8-65) (SARS-CoV-2) (UniProt P0DTC4). In words: AUC.

Values joined by “and” are separate entries in the source; they are usually repeats but may differ in a detail not shown here. Equal values may be shown once.

For orientation: stoichiometry N means a count of units in the complex or per binding partner. For the substance “Full-length SARS-CoV-2 envelope (E) protein (from UniProt P0DTC4 1-75) (natural protein)”, in assay [1], the Log10 Ka (monomers to pentamer) turned out to be 17.4; the percent of the sample as pentamers was 80%; the stoichiometry N is 3 and 5.

Turning to “His-tagged truncated SARS-CoV-2 E protein (residues 8-65) (from UniProt P0DTC4 8-65) (domain or fragment)”, in assay [2], the Log10 Ka (monomers to pentamer) was found to be 16, the percent of the sample as trimers was found to be 60% and the stoichiometry N came out at 3.
